Substitutions are numbered along the chain they refer to. Names and notes keep the numbering of the source. Where two headings read alike, the source gives them in different places. Blank lines part the entries; values can stand above or below the molecule they belong to.
Assays:
c-Met-Fc fusion protein = target: T1, c-Met-Fc fusion protein (Homo sapiens, UniProt P08581); assay: c-Met-Fc affinity by surface plasmon resonance (Proteon); type: binding; details: for binding to c-Met (in words): SPR, serine mutants in ECB15; for ka / kd / Kd: serine mutants of A3 in the context of ECB15; for Kd: read-out: KD
T1 construct: recombinant EGFR and/or c-Met extracellular domain
T1 sequence (P08581 25-932 limits assumed): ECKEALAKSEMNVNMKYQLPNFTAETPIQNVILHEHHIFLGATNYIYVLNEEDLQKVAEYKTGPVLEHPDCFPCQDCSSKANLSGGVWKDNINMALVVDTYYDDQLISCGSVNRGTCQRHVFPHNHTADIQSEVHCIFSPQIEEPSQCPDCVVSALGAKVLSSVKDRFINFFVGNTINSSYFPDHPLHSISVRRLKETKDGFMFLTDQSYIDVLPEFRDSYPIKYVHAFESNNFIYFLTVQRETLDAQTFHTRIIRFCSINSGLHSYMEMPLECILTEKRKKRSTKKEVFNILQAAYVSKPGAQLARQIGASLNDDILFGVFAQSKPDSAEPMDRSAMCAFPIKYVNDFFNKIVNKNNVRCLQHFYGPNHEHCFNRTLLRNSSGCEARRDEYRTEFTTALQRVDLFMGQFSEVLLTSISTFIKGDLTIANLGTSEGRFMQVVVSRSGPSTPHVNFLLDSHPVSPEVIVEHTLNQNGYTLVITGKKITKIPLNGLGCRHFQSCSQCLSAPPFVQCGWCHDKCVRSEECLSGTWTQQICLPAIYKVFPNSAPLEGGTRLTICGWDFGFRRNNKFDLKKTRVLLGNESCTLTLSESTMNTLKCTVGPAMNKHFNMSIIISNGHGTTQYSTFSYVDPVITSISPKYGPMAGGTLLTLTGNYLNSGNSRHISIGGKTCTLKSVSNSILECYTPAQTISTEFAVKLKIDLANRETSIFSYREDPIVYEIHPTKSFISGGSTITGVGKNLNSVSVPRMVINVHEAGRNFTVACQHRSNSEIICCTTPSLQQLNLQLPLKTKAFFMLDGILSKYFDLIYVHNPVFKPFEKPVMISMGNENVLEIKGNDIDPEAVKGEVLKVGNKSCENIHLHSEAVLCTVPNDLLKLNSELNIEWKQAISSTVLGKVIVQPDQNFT

[1] = Differential scanning calorimetry in PBS (thermal stability); type: physicochemical; details: DSC in PBS, c-Met-binding FN3 domains
H292 cells = assay: Inhibition of proliferation of HGF-induced H292 cells; type: cell-based, human; details: bispecific molecules
Source text: Inhibition of tumor cell proliferation can be measured using standard methods and methods described herein.
The proliferation assay was completed using different combinations EGFR and c-Met binding FN3 domains either as a mixture or linked in a bispecific format. […] This confirmed that the avidity effect observed at the level of the receptors (FIG. 4 and FIG. 5) translates into an improvement in inhibiting cell signaling (Table 12) and cell proliferation (Table 13).
Inhibition of human tumor cell growth was assessed in standard attachment culture as described in Examples 3 or 6, or in low attachment conditions.

binding to c-Met (in words) (c-Met-Fc fusion protein): No binding was measurable
B1: A3 M72S: serine mutant of A3 c-Met domain in ECB15 context, SEQ ID NO: 220 (protein)
chain: LPAPKNLVVSRVTEDSARLSWTAPDAAFDSFWIRYFEFLGSGEAIVLTVPGSERSYDLTGLKPGTEYVVNISGVKGGKISPPLSAIFTT
modifications: c-Met binding FN3 domain

Fold Change of KD compared to parent (c-Met-Fc fusion protein): 6.75
ka (c-Met-Fc fusion protein): 475000 M⁻¹ s⁻¹
kd (c-Met-Fc fusion protein): 0.00127 s⁻¹
Kd (c-Met-Fc fusion protein): 2.7 nM
B2: A3 L39S: serine mutant of A3 c-Met domain in ECB15 context, SEQ ID NO: 214 (protein)
chain: B1 chain with L39S, S72M
modifications: c-Met binding FN3 domain

binding to c-Met (in words) (c-Met-Fc fusion protein): No binding was measurable
B5: A3 R34S: serine mutant of A3 c-Met domain in ECB15 context, SEQ ID NO: 221 (protein)
chain: B1 chain with R34S, S72M
modifications: c-Met binding FN3 domain

Fold Change of KD compared to parent (c-Met-Fc fusion protein): 4.25
ka (c-Met-Fc fusion protein): 185000 M⁻¹ s⁻¹
kd (c-Met-Fc fusion protein): 0.00032 s⁻¹
Kd (c-Met-Fc fusion protein): 1.7 nM
B7: A3 G40S: serine mutant of A3 c-Met domain in ECB15 context, SEQ ID NO: 213 (protein)
chain: B1 chain with G40S, S72M
modifications: c-Met binding FN3 domain

Fold Change of KD compared to parent (c-Met-Fc fusion protein): 4.25
ka (c-Met-Fc fusion protein): 321000 M⁻¹ s⁻¹
kd (c-Met-Fc fusion protein): 0.000536 s⁻¹
Kd (c-Met-Fc fusion protein): 1.7 nM
B13: A3 P81S: serine mutant of A3 c-Met domain in ECB15 context, SEQ ID NO: 217 (protein)
chain: B1 chain with S72M, P81S
modifications: c-Met binding FN3 domain

Fold Change of KD compared to parent (c-Met-Fc fusion protein): 74.5
ka (c-Met-Fc fusion protein): 289000 M⁻¹ s⁻¹
kd (c-Met-Fc fusion protein): 0.0086 s⁻¹
Kd (c-Met-Fc fusion protein): 29.8 nM
B14: A3 W32S: serine mutant of A3 c-Met domain in ECB15 context, SEQ ID NO: 219 (protein)
chain: B1 chain with W32S, S72M
modifications: c-Met binding FN3 domain

Fold Change of KD compared to parent (c-Met-Fc fusion protein): 1792.5
Fold Change of KD compared to parent (c-Met-Fc fusion protein; listed as F38S): greater than 100
ka (c-Met-Fc fusion protein): 45100 M⁻¹ s⁻¹
kd (c-Met-Fc fusion protein): 0.0323 s⁻¹
Kd (c-Met-Fc fusion protein): 717 nM
B15: A3 F38S: serine mutant of A3 c-Met domain in ECB15 context, SEQ ID NO: 222 (protein)
chain: B1 chain with F38S, S72M
modifications: c-Met binding FN3 domain

binding to c-Met (in words) (c-Met-Fc fusion protein): No binding was measurable
B16: A3 I79S: serine mutant of A3 c-Met domain in ECB15 context, SEQ ID NO: 223 (protein)
chain: B1 chain with S72M, I79S
modifications: c-Met binding FN3 domain

Fold Change of KD compared to parent (c-Met-Fc fusion protein): 0.75
ka (c-Met-Fc fusion protein): 440000 M⁻¹ s⁻¹
kd (c-Met-Fc fusion protein): 0.00015 s⁻¹
Kd (c-Met-Fc fusion protein): 0.3 nM
B20: A3 K78S: serine mutant of A3 c-Met domain in ECB15 context, SEQ ID NO: 212 (protein)
chain: B1 chain with S72M, K78S
modifications: c-Met binding FN3 domain

Fold Change of KD compared to parent (c-Met-Fc fusion protein): 14.75
ka (c-Met-Fc fusion protein): 425000 M⁻¹ s⁻¹
kd (c-Met-Fc fusion protein): 0.00249 s⁻¹
Kd (c-Met-Fc fusion protein): 5.9 nM
B22: A3 N70S: serine mutant of A3 c-Met domain in ECB15 context, SEQ ID NO: 216 (protein)
chain: B1 chain with N70S, S72M
modifications: c-Met binding FN3 domain

Fold Change of KD compared to parent (c-Met-Fc fusion protein): 9
ka (c-Met-Fc fusion protein): 329000 M⁻¹ s⁻¹
kd (c-Met-Fc fusion protein): 0.0012 s⁻¹
Kd (c-Met-Fc fusion protein): 3.6 nM
B24: A3 V68S: serine mutant of A3 c-Met domain in ECB15 context, SEQ ID NO: 215 (protein)
chain: B1 chain with V68S, S72M
modifications: c-Met binding FN3 domain

IC50 (H292 cells): 29.6 nM
B25: ECB94: bispecific SEQ ID NO: 61: P54AR4-83v22, (AP)5, P114AR7P94-A3v22 (protein)
chain: MLPAPKNLVVSEVTEDSARLSWDDPWAFYESFLIQYQESEKVGEAIVLTVPGSERSYDLTGLKPGTEYTVSIYGVHNVYKDTNIRGLPLSAIFTTAPAPAPAPAPLPAPKNLVVSRVTEDSARLSWTAPDAAFDSFWIRYFEFLGSGEAIVLTVPGSERSYDLTGLKPGTEYVVNILGVKGGKISPPLSAIFTT
modifications: bispecific EGFR/cMet binding molecule

IC50 (H292 cells): 383 nM
B26: ECB95: bispecific SEQ ID NO: 62: P54AR4-83v22, (AP)5, P114AR9P121-A6v2 (protein)
chain: B25 chain with L144V, K183S
modifications: bispecific EGFR/cMet binding molecule

IC50 (H292 cells): 9480 nM
B27: ECB96: bispecific SEQ ID NO: 63: P54AR4-83v22, (AP)5, P114AR9P122-A7v2 (protein)
chain: B25 chain with L144V, G145S, S146K, E148D, K183S
modifications: bispecific EGFR/cMet binding molecule

Continued, molecule first:

B3: P114AR7P93-G8: c-Met-binding FN3 domain, SEQ ID NO: 39 (protein)
chain: B1 chain with G60D, V68G, N70T, S72N, K78R, I79V, P81T
modifications: c-Met binding FN3 domain
Thermal Stability (Tm) [1]: 76.8 C

B4: P114AR5P74-A5: c-Met-binding FN3 domain, SEQ ID NO: 32 (protein)
chain: B1 chain with F36D, F38V, L39V, G40V, S41G, V68Y, S72L, K78S, P81V
modifications: c-Met binding FN3 domain
Thermal Stability (Tm) [1]: 74.1 C

B6: P114AR7P95-H8: c-Met-binding FN3 domain, SEQ ID NO: 49 (protein)
chain: B1 chain with L39V, G40S, S41K, S72M, K78S
modifications: c-Met binding FN3 domain
Thermal Stability (Tm) [1]: 83 C

B8: P114AR7P95-F10: c-Met-binding FN3 domain, SEQ ID NO: 47 (protein)
chain: B1 chain with L39T, G40T, S41A, S72M, K78S
modifications: c-Met binding FN3 domain
Thermal Stability (Tm) [1]: 85.2 C

B9: P114AR7P93-H9: c-Met-binding FN3 domain, SEQ ID NO: 40 (protein)
chain: B1 chain with N70Q, S72I, K78H, P81L
modifications: c-Met binding FN3 domain
Thermal Stability (Tm) [1]: 88.2 C

B10: A3 F36S: serine mutant of A3 c-Met domain in ECB15 context, SEQ ID NO: 218 (protein)
chain: B1 chain with F36S, S72M
modifications: c-Met binding FN3 domain
Fold Change of KD compared to parent (c-Met-Fc fusion protein): 68
ka (c-Met-Fc fusion protein): 188000 M⁻¹ s⁻¹
kd (c-Met-Fc fusion protein): 0.00512 s⁻¹
Kd (c-Met-Fc fusion protein): 27.2 nM

B11: P114AR7P95-D4: c-Met-binding FN3 domain, SEQ ID NO: 45 (protein)
chain: B1 chain with N70Q, S72L, K78Y, P81I
modifications: c-Met binding FN3 domain
Thermal Stability (Tm) [1]: 85.3 C

B12: P114AR7P94-A3: c-Met-binding FN3 domain, SEQ ID NO: 41 (protein)
chain: B1 chain with S72M
modifications: c-Met binding FN3 domain
Thermal Stability (Tm) [1]: 86.2 C

B17: P114AR7P92-F6: c-Met-binding FN3 domain, SEQ ID NO: 35 (protein)
chain: B1 chain with S72L, K78G, I79L, P81V
modifications: c-Met binding FN3 domain
Thermal Stability (Tm) [1]: 76.8 C

B18: P114AR7P94-E5: c-Met-binding FN3 domain, SEQ ID NO: 42 (protein)
chain: B1 chain with V68A, S72M, K78R, I79V, P81V
modifications: c-Met binding FN3 domain
Thermal Stability (Tm) [1]: 80 C

B19: P114AR7P95-G7: c-Met-binding FN3 domain, SEQ ID NO: 48 (protein)
chain: B1 chain with F38L, G40S, S41T, S72M, K78S
modifications: c-Met binding FN3 domain
Thermal Stability (Tm) [1]: 87.2 C

B21: P114AR7P92-H5: c-Met-binding FN3 domain, SEQ ID NO: 37 (protein)
chain: B1 chain with F36L, G40L, S41G, N70Q, S72M, K78T, I79V
modifications: c-Met binding FN3 domain
Thermal Stability (Tm) [1]: 87 C

B23: P114AR7P92-G8: c-Met-binding FN3 domain, SEQ ID NO: 36 (protein)
chain: B1 chain with W32V, N70Q, S72L, K78Y, P81I
modifications: c-Met binding FN3 domain
Thermal Stability (Tm) [1]: 90.9 C
